Test results reported in patent US8110672B2, “Promoter engineering and genetic control” (priority 2005, dated 2012).

How the values were obtained:
gfp transcript = experiment: Transcriptional analysis: quantitative RT-PCR of the gfp transcript; format: cell-based, E. coli; conditions: cultures grown 3 hours, relative level
Method: Cultures inoculated as previously were grown for 3 hours and the total RNA was extracted from a 1.5 mL sample with a commercial kit (RNEasy, Qiagen Corp). All samples were diluted to a final concentration of 20 μg/mL and stored at −20° C. A commercial kit for RT-PCR (iScript One-Step RT-PCR Kit with SYBR Green, Bio-Rad) was used with a CCD-equipped thermal cycler (iCycler, Bio-Rad) for RT-PCR of the gfp transcript. Primers (sense-[…] (SEQ ID NO: 4) and antisense-[…] (SEQ ID NO: 5)) were used at a final concentration of 100 nM and 20 ng of RNA was used as template in each 50 μL reaction. We performed duplicate cultures for each clone and duplicate extractions for each culture. The threshold cycles for each sample were calculated from the fluorescence data with proprietary software (Bio-Rad, Inc).
To characterize the promoter library directly at the transcriptional level, the relative mRNA levels of gfp transcripts in the above cultures were determined by quantitative RT-PCR. The high correlation between fluorescence and mRNA level (FIG. 4) confirmed that expression was transcriptionally controlled. The data was obtained where GFP fluorescence levels were modulated by the level of oxygen. In this way, selection for promoters, which had differential expression in high and low oxygen conditions was accomplished.

CAT = experiment: Chloramphenicol resistance of pZE-promoter-cat constructs (MIC on LB agar); format: cell-based, E. coli; conditions: lowest chloramphenicol concentration that inhibited growth; promoter driving cat, LB agar with kanamycin, overnight 37° C.
Method: pZE-promoter-cat plasmids were created by PCR of the CAT gene from pACYC184 using primers CAT_Sense_MluI: […] (SEQ ID NO: 6) and CAT_Anti_KpnI: […] (SEQ ID NO: 7) and ligated into the proper pZE-promoter construct which was previously digested by KpnI and MluI. Exponential-phase cultures grown in LB supplemented with kanamycin were plated onto LB agar supplemented with kanamycin and various concentrations of chloramphenicol ranging from 0 to 500 μg/ml. After overnight incubation at 37° C., the lowest concentration of chloramphenicol that inhibited the growth of a clone was recorded.
To verify the constitutive nature of all the promoters, each was redeployed into a new construct driving the reporter gene cat. Cultures bearing these constructs were assayed for resistance to chloramphenicol on a rich, solid-phase medium. […] Moreover, these conditions test the promoter library in contrasting medium and growth environments (liquid minimal medium vs. solid complex medium) further underscoring the constitutive nature of the library promoters.

B1: PLTetO1: PLteto-1 promoter, sequence SEQ ID NO: 34, relative to which the mutated promoters are defined (nucleic acid)
DNA: CAATTCCGACGTCTAAGAAACCATTATTATCATGACATTAACCTATAAAAATAGGCGTATCACGAGGCCCTTTCGTCTTCACCTCGAGTCCCTATCAGTGATAGAGATTGACATCCCTATCAGTGATAGAGATACTGAGCACATCAGCAGGACGCACTGACC
modifications: mutant sequence of bacteriophage lambda tetO promoter
- Promoter Strength (gfp; P from Equation 1, pZE-promoter-gfp(ASV) plasmid, M9G/CAA medium, exponential phase, duplicate cultures): 145,806.85 relative fluorescence units per absorbance unit per hour
- Average Promoter Metric (gfp; average of the scaled mRNA and fluorescence data): 0.8685
- Relative mRNA (gfp transcript): 1
- Cm MIC (CAT): 338 mg/L
